Reference: patent US20180155450A1 (Sanofi, published 2018)

T1: recombinant human IL4 (human, UniProt P05112 25-153)
T1 construct: bought; also called Antigen1
T1 sequence (looked up): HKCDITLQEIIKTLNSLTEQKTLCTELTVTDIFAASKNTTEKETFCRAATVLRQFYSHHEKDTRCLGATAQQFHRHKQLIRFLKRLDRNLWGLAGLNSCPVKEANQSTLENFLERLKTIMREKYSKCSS


molecular target: T2, recombinant human IL13 (human, UniProt P35225 35-146, limits assumed); test: SPR (Biacore 3000), captured CODV-Ig, antigen as analyte;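 further: kd derived from kinetic fits in BIAevaluation 4.1, with signals referenced against a flow cell lacking captured antibody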
T2 construct: bought; also called Antigen2
T2 sequence (P35225 35-146 limits assumed): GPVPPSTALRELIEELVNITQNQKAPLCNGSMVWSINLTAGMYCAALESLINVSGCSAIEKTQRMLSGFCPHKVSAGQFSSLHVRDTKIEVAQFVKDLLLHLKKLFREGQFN
Protocol: (§1) Kinetic binding analysis by Biacore was performed as follows. Surface plasmon resonance technology on a Biacore 3000 (GE Healthcare) was used for detailed kinetic characterization of purified antibodies. […] Chip surfaces were regenerated with 10 mM glycine pH 2.5. Kinetic parameters were analyzed and calculated in the BIAevaluation program package v4.1 using a flow cell without captured antibody as a reference.

| Binder | Kd |
| --- | --- |
| CODV-Ig Batch ID 207 (IL4 × IL13 on HC; L1=5, L2=3, L3=2, L4=0) (bispecific antibody) chain 1: not shown chain 2: DIVLTQSPASLAVSLGQRATISCRASESVDSYGQSYMHWYQQKAGQPPKLLIYLASNLESGVPARFSGSGSRTDFTLTIDPVQAEDAATYYCQQNAEDSRTFGGGTKLEIKGGGGGDIQMTQSPASLSVSVGDTITLTCHASQNIDVWLSWFQQKPGNIPKLLIYKASNLHTGVPSRFSGSGSGTGFTLTISSLQPEDIATYYCQQAHSYPFTFGGGTKLEIKGGGRTVAAPSVFIFPPSDEQLKSGTASVVCLLNNFYPREAKVQWKVDNALQSGNSQESVTEQDSKDSTYSLSSTLTLSKADYEKHKVYACEVTHQGLSSPVTKSFNRGEC | 33 pM |

molecular target: T1, recombinant human IL4; test: as above
Protocol: as §1

| Binder | Kd |
| --- | --- |
| CODV-Ig Batch ID 207 (IL4 × IL13 on HC; L1=5, L2=3, L3=2, L4=0) (bispecific antibody) chain 1: not shown chain 2: DIVLTQSPASLAVSLGQRATISCRASESVDSYGQSYMHWYQQKAGQPPKLLIYLASNLESGVPARFSGSGSRTDFTLTIDPVQAEDAATYYCQQNAEDSRTFGGGTKLEIKGGGGGDIQMTQSPASLSVSVGDTITLTCHASQNIDVWLSWFQQKPGNIPKLLIYKASNLHTGVPSRFSGSGSGTGFTLTISSLQPEDIATYYCQQAHSYPFTFGGGTKLEIKGGGRTVAAPSVFIFPPSDEQLKSGTASVVCLLNNFYPREAKVQWKVDNALQSGNSQESVTEQDSKDSTYSLSSTLTLSKADYEKHKVYACEVTHQGLSSPVTKSFNRGEC | 3 pM |
| CODV-Ig Batch ID 208 (IL4 × IL13 on HC; L1=5, L2=5, L3=2, L4=0) (bispecific antibody, IgG1 CODV-Ig, heavy chain as template; L4 = 0 (no linker)) heavy: not shown light: DIVLTQSPASLAVSLGQRATISCRASESVDSYGQSYMHWYQQKAGQPPKLLIYLASNLESGVPARFSGSGSRTDFTLTIDPVQAEDAATYYCQQNAEDSRTFGGGTKLEIKGGGGGDIQMTQSPASLSVSVGDTITLTCHASQNIDVWLSWFQQKPGNIPKLLIYKASNLHTGVPSRFSGSGSGTGFTLTISSLQPEDIATYYCQQAHSYPFTFGGGTKLEIKGGGGGRTVAAPSVFIFPPSDEQLKSGTASVVCLLNNFYPREAKVQWKVDNALQSGNSQESVTEQDSKDSTYSLSSTLTLSKADYEKHKVYACEVTHQGLSSPVTKSFNRGEC | 10 pM |
| CODV-Ig Batch ID 210 (IL4 × IL13 on HC; L1=7, L2=5, L3=2, L4=0) (bispecific antibody, IgG1 CODV-Ig, heavy chain as template; L4 = 0 (no linker)) heavy: not shown light: DIVLTQSPASLAVSLGQRATISCRASESVDSYGQSYMHWYQQKAGQPPKLLIYLASNLESGVPARFSGSGSRTDFTLTIDPVQAEDAATYYCQQNAEDSRTFGGGTKLEIKGGGGGGGDIQMTQSPASLSVSVGDTITLTCHASQNIDVWLSWFQQKPGNIPKLLIYKASNLHTGVPSRFSGSGSGTGFTLTISSLQPEDIATYYCQQAHSYPFTFGGGTKLEIKGGGGGRTVAAPSVFIFPPSDEQLKSGTASVVCLLNNFYPREAKVQWKVDNALQSGNSQESVTEQDSKDSTYSLSSTLTLSKADYEKHKVYACEVTHQGLSSPVTKSFNRGEC | 4 pM |
| CODV-Ig Batch ID 232 (IL4 × IL13 on HC; L1=5, L2=5, L3=5, L4=0) (bispecific antibody, IgG1 CODV-Ig, heavy chain as template; L4 = 0 (no linker)) heavy: not shown light: DIVLTQSPASLAVSLGQRATISCRASESVDSYGQSYMHWYQQKAGQPPKLLIYLASNLESGVPARFSGSGSRTDFTLTIDPVQAEDAATYYCQQNAEDSRTFGGGTKLEIKGGGGGDIQMTQSPASLSVSVGDTITLTCHASQNIDVWLSWFQQKPGNIPKLLIYKASNLHTGVPSRFSGSGSGTGFTLTISSLQPEDIATYYCQQAHSYPFTFGGGTKLEIKGGGGGRTVAAPSVFIFPPSDEQLKSGTASVVCLLNNFYPREAKVQWKVDNALQSGNSQESVTEQDSKDSTYSLSSTLTLSKADYEKHKVYACEVTHQGLSSPVTKSFNRGEC | 8 pM |
| CODV-Ig Batch ID 234 (IL4 × IL13 on HC; L1=7, L2=5, L3=5, L4=0) (bispecific antibody, IgG1 CODV-Ig, heavy chain as template; L4 = 0 (no linker)) heavy: not shown light: DIVLTQSPASLAVSLGQRATISCRASESVDSYGQSYMHWYQQKAGQPPKLLIYLASNLESGVPARFSGSGSRTDFTLTIDPVQAEDAATYYCQQNAEDSRTFGGGTKLEIKGGGGGGGDIQMTQSPASLSVSVGDTITLTCHASQNIDVWLSWFQQKPGNIPKLLIYKASNLHTGVPSRFSGSGSGTGFTLTISSLQPEDIATYYCQQAHSYPFTFGGGTKLEIKGGGGGRTVAAPSVFIFPPSDEQLKSGTASVVCLLNNFYPREAKVQWKVDNALQSGNSQESVTEQDSKDSTYSLSSTLTLSKADYEKHKVYACEVTHQGLSSPVTKSFNRGEC | 3 pM |
| CODV-Ig Batch ID 204 (IL4 × IL13 on HC; L1=7, L2=5, L3=1, L4=2) (bispecific antibody, IgG1, IgG1 CODV-Ig, heavy chain as template) heavy: not shown light: DIVLTQSPASLAVSLGQRATISCRASESVDSYGQSYMHWYQQKAGQPPKLLIYLASNLESGVPARFSGSGSRTDFTLTIDPVQAEDAATYYCQQNAEDSRTFGGGTKLEIKGGGGGGGDIQMTQSPASLSVSVGDTITLTCHASQNIDVWLSWFQQKPGNIPKLLIYKASNLHTGVPSRFSGSGSGTGFTLTISSLQPEDIATYYCQQAHSYPFTFGGGTKLEIKGGGGGRTVAAPSVFIFPPSDEQLKSGTASVVCLLNNFYPREAKVQWKVDNALQSGNSQESVTEQDSKDSTYSLSSTLTLSKADYEKHKVYACEVTHQGLSSPVTKSFNRGEC | 3 pM |
